{"source": "paper PMC5072841", "about": "“Insights into HIV-1 proviral transcription from integrative structure and dynamics of the Tat:AFF4:P-TEFb:TAR complex” (eLife, 2016)", "key": {"[1]": {"test_system": "HIV-1 Tat;Cyclin T1 (CycT1, P-TEFb subunit);CDK9 (P-TEFb subunit);AFF4 2-73 K63A (HIV-1;human;human;human)", "test": "EMSA", "conditions": "EMSA: 100 pM 32P-TAR, 0.009-190 nM Tat:P-TEFb, 5-fold molar excess AFF4 over P-TEFb; buffer and temperature as in Schulze-Gahmen 2014 (not given). SHAPE: RNA …"}, "[2]": {"test_system": "HIV-1 Tat;Cyclin T1 (CycT1, P-TEFb subunit);CDK9 (P-TEFb subunit) (HIV-1;human;human)", "test": "EMSA", "conditions": "EMSA: 100 pM 32P-TAR, 0.009-190 nM Tat:P-TEFb, 5-fold molar excess AFF4 over P-TEFb; buffer and temperature as in Schulze-Gahmen 2014 (not given). SHAPE: RNA …"}, "[3]": {"test_system": "HIV-1 Tat;Cyclin T1 (CycT1, P-TEFb subunit);CDK9 (P-TEFb subunit);AFF4 2-73 E61A (HIV-1;human;human;human)", "test": "EMSA", "conditions": "EMSA: 100 pM 32P-TAR, 0.009-190 nM Tat:P-TEFb, 5-fold molar excess AFF4 over P-TEFb; buffer and temperature as in Schulze-Gahmen 2014 (not given). SHAPE: RNA …"}, "[4]": {"test_system": "HIV-1 Tat;Cyclin T1 (CycT1, P-TEFb subunit);CDK9 (P-TEFb subunit);AFF4 2-73 WT (HIV-1;human;human;human)", "test": "EMSA", "conditions": "EMSA: 100 pM 32P-TAR, 0.009-190 nM Tat:P-TEFb, 5-fold molar excess AFF4 over P-TEFb; buffer and temperature as in Schulze-Gahmen 2014 (not given). SHAPE: RNA …"}, "[5]": {"test_system": "HIV-1 Tat;Cyclin T1 (CycT1, P-TEFb subunit);CDK9 (P-TEFb subunit);AFF4 2-73 WT (HIV-1;human;human;human)", "test": "EMSA", "conditions": "EMSA: 100 pM 32P-TAR, 0.009-190 nM Tat:P-TEFb, 5-fold molar excess AFF4 over P-TEFb; buffer and temperature as in Schulze-Gahmen 2014 (not given). SHAPE: RNA …", "remark": "listed apart in the source"}, "[6]": {"target": "T1, human cyclin T1 1-264 (human, UniProt O60563 1-264)", "T1 construct": "human cyclin T1, residues 1-264; also called CycT1; CycT; source: High 5 insect cells, recombinant baculovirus, co-expressed with CDK9 and Tat, purified", "T1 sequence (O60563 1-264)": "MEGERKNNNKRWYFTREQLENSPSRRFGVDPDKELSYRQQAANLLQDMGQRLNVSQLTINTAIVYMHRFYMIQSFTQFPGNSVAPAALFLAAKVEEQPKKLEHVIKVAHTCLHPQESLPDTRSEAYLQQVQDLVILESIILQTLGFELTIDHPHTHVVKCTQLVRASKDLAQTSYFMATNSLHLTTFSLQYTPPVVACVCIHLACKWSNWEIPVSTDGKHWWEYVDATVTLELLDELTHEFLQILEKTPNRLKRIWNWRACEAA", "test": "crystal structure; Tat_(1-57):AFF4_(32-67):P-TEFb combined with TAR21 RNA (nucleotides 21-41) at 1:1.3; sitting drops at 18°C; 5.9 Å; molecular replacement with PDB 4OGR", "conditions": "both partners purified"}}}
{"molecule": "HIV-1 TAR 18-44 WT", "values": [{"measurement": "binding signal (fold reduction in affinity vs WT AFF4)", "setting": "[1]", "value": 2}, {"measurement": "Kd", "setting": "[2]", "value": 19, "unit": "nM"}, {"measurement": "binding signal (fold reduction in affinity vs WT AFF4)", "setting": "[3]", "value": 3}, {"measurement": "Kd", "setting": "[4]", "value": 0.26, "unit": "nM"}, {"measurement": "Kd", "setting": "[5]", "value": 0.2, "unit": "nM"}]}
{"molecule": "Ac-SPLFAEPYKVTSKEDKLSSRIQSMLGNYDEMKDFIG-NH2 (peptide, UniProt Q9UHB7 32-67, looked up, human AFF4, residues 32-67; also called AFF4_(32-67); synthetic AFF4 peptide (32-67); source: synthetic peptide (University of Utah DNA/Peptide Facility))", "note": "[AFF4 peptide 32-67]", "values": [{"measurement": "binding result", "setting": "[6]", "value": "binds"}]}
